Reference: US20110160081A1, “FUNCTIONAL COMPLEMENTATION ASSAY FOR DEFINED GPCR OLIGOMERS” (priority 2008, published 2011)

Assays:
Assay in all cases: cell-based or functional assay
[1] = biological target: D114^3.32A/E339^6.30A/T343^6.34R-Gq5 (human)
[2] = biological target: DOR-Gqi5 (delta opiate receptor fused to Gqi5) (mouse)
[3] = biological target: N393A/CAM-Gqi5 (human)

Sequence of Myc-tagged D2R (unfused wild type dopamine D2 receptor, short isoform) (P14416 other isoform, or with tags, fused parts or gaps): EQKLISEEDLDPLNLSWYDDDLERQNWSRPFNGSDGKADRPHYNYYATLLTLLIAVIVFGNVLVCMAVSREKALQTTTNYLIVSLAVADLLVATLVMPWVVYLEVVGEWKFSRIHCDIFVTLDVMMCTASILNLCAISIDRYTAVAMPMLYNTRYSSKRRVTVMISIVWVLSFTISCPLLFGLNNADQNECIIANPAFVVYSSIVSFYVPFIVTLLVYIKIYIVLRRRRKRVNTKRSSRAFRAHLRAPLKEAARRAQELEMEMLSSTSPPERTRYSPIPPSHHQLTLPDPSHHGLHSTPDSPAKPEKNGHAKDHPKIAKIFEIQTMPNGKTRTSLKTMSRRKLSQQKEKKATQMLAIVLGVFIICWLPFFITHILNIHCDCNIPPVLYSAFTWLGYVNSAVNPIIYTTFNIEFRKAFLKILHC

Substance	maximal activity, aequorin luminescence [1]	potency of quinpirole in the presence of 5 nM DPDPE, aequorin luminescence [2]	aequorin luminescence on quinpirole (functional complementation) [3]	activation at 5 nM DPDPE, aequorin luminescence [2]
Myc-tagged D2R (unfused wild type dopamine D2 receptor, short isoform) (from UniProt P14416 2-443)	49.6	10 fold	3 fold	–
DPDPE (peptide)	–	–	–	10 % activation
